Experimental findings from US20190194358A1 (ARIZONA BOARD OF REGENTS A BODY CORPORATE OF THE STATE OF …, published 2019) are described below.

Experiment [1] concerns the target T1, transferrin (human, UniProt P02787 20-698).
T1 construct: also called TRF; pooled human transferrin (Sigma)
The experiment is described as follows: SPR (Biacore A-100), biotinylated transferrin captured on Neutravidin, unpurified peptide injected for 60 s. For orientation: SPR reads the build-up and loss of mass on a sensor chip optically.

For experiment [2], the target named is T1, transferrin. Described as above. This is another data set of the same source.
Experiment [3] concerns the target T1, transferrin. The description is as above. This is another data set of the same source.
The target in experiment [4] is T1, transferrin. Described as above. The source holds these as a separate data set.
Experiment [5] addresses T1, transferrin. Described as above. This is another data set of the same source.
The target of the next experiment is T2, Gal80 (UniProt P04387 1-435, limits assumed).
T2 construct: Cy3/Cy5 labelled on arrays, immobilised for SPR and ELISA
T2 sequence (looked up): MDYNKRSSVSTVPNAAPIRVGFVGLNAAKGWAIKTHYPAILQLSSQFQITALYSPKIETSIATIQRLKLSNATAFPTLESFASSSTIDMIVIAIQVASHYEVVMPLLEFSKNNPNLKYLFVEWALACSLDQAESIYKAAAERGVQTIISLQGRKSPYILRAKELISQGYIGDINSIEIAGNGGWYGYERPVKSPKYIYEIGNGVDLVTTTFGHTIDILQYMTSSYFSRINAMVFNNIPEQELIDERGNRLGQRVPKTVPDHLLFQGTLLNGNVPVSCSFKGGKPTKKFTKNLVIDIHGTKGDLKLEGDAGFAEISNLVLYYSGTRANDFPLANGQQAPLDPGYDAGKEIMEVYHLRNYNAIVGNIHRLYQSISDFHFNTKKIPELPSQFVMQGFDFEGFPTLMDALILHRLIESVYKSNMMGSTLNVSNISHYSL
The experiment is described as follows: SPR, gal80 immobilised on the chip; Kd from on and off rates.

Experiment [6] addresses T1, transferrin. The experiment is described as follows: SPR (Biacore A-100), biotinylated transferrin captured on Neutravidin, unpurified peptide injected for 60 s. The source holds these as a separate data set.
Experiment [7] concerns the target T1, transferrin. The experiment is described as above. This is another data set of the same source.
Experiment [8] has as its target T1, transferrin. The description is as above. The source holds these as a separate data set.
Experiment [9] addresses T3, SC1 Transcription factor 19 (human, UniProt Q9Y242).
T3 construct: GST fusion on the array
T3 sequence (looked up): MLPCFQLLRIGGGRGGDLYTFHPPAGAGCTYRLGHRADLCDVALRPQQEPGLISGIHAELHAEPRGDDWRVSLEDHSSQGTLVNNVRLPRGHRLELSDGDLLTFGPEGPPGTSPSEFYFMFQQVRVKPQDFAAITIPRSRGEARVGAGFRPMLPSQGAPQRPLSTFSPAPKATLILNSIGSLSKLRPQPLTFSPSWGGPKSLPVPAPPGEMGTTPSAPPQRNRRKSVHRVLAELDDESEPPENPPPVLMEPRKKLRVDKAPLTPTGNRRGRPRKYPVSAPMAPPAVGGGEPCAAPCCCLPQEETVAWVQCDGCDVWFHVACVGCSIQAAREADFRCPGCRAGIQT
The experiment is described as follows: Invitrogen ProtoArray Human Protein Microarray v4.0; biotinylated synbody, fluorescently labelled streptavidin; fluorescence intensity.
Protocol: (§1) The prescribed cover slip was placed over the array and adjusted to remove air bubbles. The array was incubated in a 50 ml conical tube, printed side up, for 1.5 hours at 4 C without shaking. The array was then removed from the conical tube inserted diagonally into the array chamber, kept on ice. 8 ml probing buffer was added to the chamber wall. The cover slip was removed and the array was incubated in probing buffer for 1 minute on ice. The probing buffer was decanted and drained. Two further washings were performed adding 8 ml probing buffer, incubating on ice for 1 minute, and decanting and draining. 5 nM fluorescently labeled streptavidin diluted in 6 ml probing buffer was incubated on the array for 30 minutes on ice in the dark, after which the solution was decanted and drained. Three wash steps were performed, each by adding 8 ml probing buffer, incubating for 1 minute on ice, decanting, and draining. The array was removed from the chamber, centrifuged at 800×g for 5 minutes at room temperature. The array was dried in the dark for 60 minutes at room temperature, after which it was scanned using a fluorescent microarray scanner and data was taken and analyzed.

The target in a further experiment is T4, PSMA3 (human, UniProt P25788).
T4 construct: GST fusion on the array
T4 sequence (P25788 whole entry, the tested form may be a part): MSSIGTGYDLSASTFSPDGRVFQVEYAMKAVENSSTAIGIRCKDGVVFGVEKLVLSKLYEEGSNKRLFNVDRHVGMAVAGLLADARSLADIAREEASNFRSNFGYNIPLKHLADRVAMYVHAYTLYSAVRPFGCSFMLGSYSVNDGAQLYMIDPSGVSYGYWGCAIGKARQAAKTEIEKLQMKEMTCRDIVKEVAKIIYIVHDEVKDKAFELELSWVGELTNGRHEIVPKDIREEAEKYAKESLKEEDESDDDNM
The description is as above.

The next experiment deals with T5, GRP58 (human, UniProt P30101 25-505, limits assumed).
T5 construct: GST fusion adsorbed on a nitrocellulose slide
T5 sequence (looked up): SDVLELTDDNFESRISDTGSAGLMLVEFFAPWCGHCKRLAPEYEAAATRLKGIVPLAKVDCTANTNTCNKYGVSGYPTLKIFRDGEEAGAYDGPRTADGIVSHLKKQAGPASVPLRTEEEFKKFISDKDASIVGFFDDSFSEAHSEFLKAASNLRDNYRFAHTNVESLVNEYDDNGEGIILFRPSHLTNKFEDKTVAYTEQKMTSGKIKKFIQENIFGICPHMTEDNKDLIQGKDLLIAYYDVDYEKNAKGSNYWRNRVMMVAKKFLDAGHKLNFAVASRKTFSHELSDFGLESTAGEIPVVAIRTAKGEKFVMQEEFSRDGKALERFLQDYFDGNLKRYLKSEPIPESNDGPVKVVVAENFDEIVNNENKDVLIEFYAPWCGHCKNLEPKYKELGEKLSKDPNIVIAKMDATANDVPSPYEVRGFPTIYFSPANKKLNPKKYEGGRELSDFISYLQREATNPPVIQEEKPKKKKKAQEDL
The description is as above.

For experiment [10], the target named is T1, transferrin. The experiment is described as follows: SPR (Biacore A-100), biotinylated transferrin captured on Neutravidin, unpurified peptide injected for 60 s. This is another data set of the same source.
For experiment [11], the target named is T6, Tumor Necrosis Factor-alpha (UniProt P01375 77-233).
T6 construct: Immobilised on pipette tips or SPR chips (amine coupling or biotin capture); also called TNF-α; TNF-alpha
T6 sequence (P01375 77-233 limits assumed): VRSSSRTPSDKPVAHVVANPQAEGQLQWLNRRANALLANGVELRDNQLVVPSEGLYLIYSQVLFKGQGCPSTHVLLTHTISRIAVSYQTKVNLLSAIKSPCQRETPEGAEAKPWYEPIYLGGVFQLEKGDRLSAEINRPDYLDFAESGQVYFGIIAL
The experiment is described as follows: SPR (Biacore T-100), TNF-α amine-coupled to a CM5 chip, synbody concentration series.
Protocol: Candidate TNF-α binding synbodies were screened by surface plasmon resonance (SPR) on a Biacore T-100 SPR instrument to verify binding for TNF-α. A CM5 chip was activated using standard amine coupling chemistry and TNF-α was immobilized. Each synbody was prepared in HBS—N buffer with excess carboxymethyl dextran added to the running buffer to minimize non-specific binding to the chip surface.

The target in experiment [12] is T6, Tumor Necrosis Factor-alpha. The experiment is described as follows: SPR, kinetic fits of sensorgrams.
Experiment [13] has the same target. The experiment is described as follows: SPR (Biacore A100), TNF-α captured, equilibrium response over a concentration series.
Protocol: (§2) Point-mutant libraries were prepared in 96-well stock plates From the stock plate, peptides were diluted to 50 μM concentration in Biacore HBS-EP buffer (GE Healthcare, Piscataway, N.J.) containing 1 mg/ml carboxymethyl-dextran (Sigma-Aldrich, St. Louis, Mo.) to reduce non-specific binding to the CM-5 SPR chip surface. TNF-αt was captured on a CM-5 chip surface at different capture levels on spots 1, 2, 4, and 5 across all four flow cells corresponding to a 40-200 RU range of predicted Rₘₐₓ binding responses. Spot 3 contained only immobilized neutravidin and served as a reference spot.
(§3) Purified point-mutant affinities were measured on the Biacore A100 using SPR equilibrium binding response across a series of peptide concentrations on an SPR chip with TNF-α captured as described above.
Experiment [14] has the same target. The experiment is described as follows: SPR-derived binding energies.
Experiment [15] has the same target. The experiment is described as follows: SPR; reference TNF1 lead peptide.
Protocol: as §2, §3
Experiment [16] shares this target. The experiment is described as follows: SPR equilibrium binding (Biacore A100), TNF-α captured on the chip.
Experiment [17] shares this target. The experiment is described as follows: SPR (Biacore A100), TNF-α captured, equilibrium response over a concentration series. This is another data set of the same source.
Protocol: as §2, §3
The target is the same in experiment [18]. The experiment is described as follows: SPR; reference TNF1 lead peptide. This is another data set of the same source.
Protocol: as §2, §3
The target is the same in experiment [19]. The experiment is described as follows: SPR; difference to the TNF1 lead peptide.
Protocol: as §2, §3
The target is the same in experiment [20]. The experiment is described as follows: SPR (Biacore A100) point-mutant screen at 50 µM peptide.
Protocol: as §2
Using the prepared 96-well plates and Biacore A100 SPR instrument, four peptides were flowed separately, in parallel, through the four flow cells over all 4 TNF-α spots and the neutravidin reference spot, with a 60 second association phase and 300 second dissociation phase. SPR sensorgrams were recorded for each peptide response with all 4 TNF-α spots and the neutravidin reference spot across the four flow cells on the SPR chip. Surface regeneration was performed after every 12 injections in each flow cell with Biacore Glycine 2.5 regeneration solution (GE Healthcare, Piscataway, N.J.). Point-mutant reference subtracted, peptide molecular weight adjusted, responses at the late binding region of the sensorgram (a few seconds before dissociation) were compared to the response of the TNF1 lead
The target of experiment [21] is T1, transferrin. The experiment is described as follows: SPR (Biacore T100), transferrin immobilised (9758 RU), steady state affinity fit.
Description: Affinity plots were generated for each peptide and fit using a steady state affinity model.
Experiment [22] has as its target T1, transferrin. The experiment is described as follows: reference TRF26 lead peptide.
Experiment [23] has as its target T1, transferrin. The experiment is described as follows: affinity characterisation of Example 29 (SPR; format for the purified peptides not stated).

Where two headings read alike, the source gives them in different places. Ends that are not written are not given here.

T1 sequence (P02787 20-698 limits assumed): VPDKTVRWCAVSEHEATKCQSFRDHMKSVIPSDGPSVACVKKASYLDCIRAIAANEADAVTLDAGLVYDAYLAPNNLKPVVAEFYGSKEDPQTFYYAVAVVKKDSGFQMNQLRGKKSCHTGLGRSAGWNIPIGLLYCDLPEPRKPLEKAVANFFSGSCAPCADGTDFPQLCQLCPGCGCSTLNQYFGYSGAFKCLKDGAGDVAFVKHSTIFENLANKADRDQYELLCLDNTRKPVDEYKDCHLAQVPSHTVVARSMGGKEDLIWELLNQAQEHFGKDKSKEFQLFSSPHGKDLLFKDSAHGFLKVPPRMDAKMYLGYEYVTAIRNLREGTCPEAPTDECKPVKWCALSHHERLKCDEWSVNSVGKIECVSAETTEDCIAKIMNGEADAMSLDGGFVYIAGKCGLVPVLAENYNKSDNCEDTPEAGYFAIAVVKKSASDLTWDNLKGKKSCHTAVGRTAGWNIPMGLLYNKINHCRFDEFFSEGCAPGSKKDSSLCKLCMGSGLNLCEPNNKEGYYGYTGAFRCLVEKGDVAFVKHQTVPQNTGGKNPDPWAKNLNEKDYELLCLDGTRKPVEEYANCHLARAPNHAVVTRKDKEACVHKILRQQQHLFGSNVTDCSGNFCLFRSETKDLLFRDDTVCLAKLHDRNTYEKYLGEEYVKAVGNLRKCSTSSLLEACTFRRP
Protocol for GRP58: as §1
Protocol for PSMA3: as §1

On to QENDQQSFGLGGMMGQAGSC (Unpurified library peptide) [peptide of FIG. 60K], for which, in the experiment with transferrin [1], the binding result is listed as “binds”.

Consider KMRTITYYHLQAILKQRGSC (Unpurified library peptide) [peptide of FIG. 60F], for which, in the experiment with transferrin [2], the binding result is “binds”. Take AMMRMDMAGLNKIVFHQGSC (Unpurified library peptide) [peptide of FIG. 60I]: the binding result with transferrin [3] is “binds”. Consider WMDDIDAPQDEWWVFHHGSC (Unpurified library peptide) [peptide of FIG. 60C], for which the binding result with transferrin [4] is “binds”.

Consider DFLWSKSGILSHASWNHGSC (Unpurified library peptide) [peptide of FIG. 60D], for which, in the experiment with transferrin [5], the binding result is “binds”.

B1: BP1 on dsDNA (peptide)
affinity element BP1: GTEKGTSGWLKTGSC
modifications: C-terminal Cys joined through SMCC to the DNA linker
notes: also called BP1 alone conjugated to the double-stranded DNA linker
For orientation: Kd means the equilibrium constant for the complex coming apart. Molecule B1 registered a Kd in the experiment with Gal80 of 0.482 µM. As to DNSRRSAKQRIFMHVDLGSC (Unpurified library peptide) [peptide of FIG. 60G], the binding result in the experiment with transferrin [6] was “binds”. Consider DRDTPWETTNKTEEGIEGSC (Unpurified library peptide) [peptide of FIG. 60J], for which, in the experiment with transferrin [7], the binding result is “binds”. Turning to TEDNDYMVVSMVVTMEPGSC (Unpurified library peptide) [peptide of FIG. 60L], the binding result with transferrin [8] was “binds”.

B2: SYN21-22 (designed binder)
peptide 1: QYHHFMNLKRQGRAQAYGSG
peptide 2: HAYKGPGDMRRFNHSGMGSG
modifications: also: both chains joined by C-terminus to the amines of a branching Lys, Lys-Cys linker with biotinylated Cys thiol
notes: Lysine linker followed by cysteine; the thiol of the cysteine biotinylated for the protein array; also called anti-TRF synbody
For the molecule B2, the binding result (in experiment [9]; with PSMA3; with GRP58) was “binds” each time.

B3: peptide of FIG. 60B (peptide)
peptide: NIRMLLRFTVFPAQKLIGSC
notes: Unpurified library peptide (~50 to 70% pure)
Consider B3, for which the binding result with transferrin [10] is given as “binds”.

B4: BP2 on dsDNA (peptide)
affinity element BP2: EGEWTEGKLSLRGSC
modifications: C-terminal Cys joined through SMCC to the DNA linker
notes: also called BP2 alone conjugated to the double-stranded DNA linker
As to B4, the Kd with Gal80 was determined as 0.982 µM.

B5: TNF1-TNF4-KC-stBu (designed binder)
peptide 1: MKSIIPMSVAQHQGPIKGSG
peptide 2: FMNYPIKVPILVVPIGRGSG
modifications: not fully specified (C-terminus, bridges); also: chain 1 C-terminus on Lys α-amine, chain 2 C-terminus on same Lys ε-amine (branched dimer)
notes: Lysine linker followed by Cys(StBu); also called TNFa1-TNFa 4- KC(stBu)
With B5, in experiment [11], the binding result is recorded as “no binding”.

The koff is the first-order rate constant of dissociation. Regarding FERDPLMMPWSFLQSRQGSC [TNF1 lead peptide], in experiment [12], the koff worked out at 1.6 s⁻¹. Also, in experiment [13], the “Binding ΔG” value was -5.21 kcal/mol and the Kd stood at 160 µM.

B6: TNF1 D4S+P5Y+S11K triple mutant (peptide)
peptide: FERSYLMMPWKFLQSRQGSC
notes: also called D4S + P5Y + S1IK (so in the source)
On to B6, for which the “difference in observed binding energy relative to P5Y+S11K” value in experiment [14] is -0.72 kcal/mol. In addition, the “Kd Fold-Change Relative to Lead” value in [15] amounted to 23 fold. For the same molecule, the “Fold Change (Ka mutant / Ka TNF1)” value in experiment [16] was 23 fold. In [17], binding was put at a Kd of 7 µM and the “Observed Binding ΔG” value was -7.03 kcal/mol. On to FERDYLMMPWSFLQSRQGSC [TNF1 P5Y point-mutant], for which the “Kd Fold-Change Relative to Lead” value in [18] worked out at 2.7 fold. In addition, the “Component Binding ΔG Contribution” value in [19] was -0.58 kcal/mol. Besides, in [20], the “fold enhancement in SPR binding response relative to TNF1” value is at least 15 fold. In addition, in experiment [13], the “Binding ΔG” value is -5.79 kcal/mol and the Kd came to 58 µM.

Regarding FERDPLMMPWKFLQSRQGSC [TNF1 S11K point-mutant], the “Kd Fold-Change Relative to Lead” value in experiment [18] turned out to be 3.9 fold. Besides, in experiment [19], the “Component Binding ΔG Contribution” value is -0.82 kcal/mol. Also, the “fold enhancement in SPR binding response relative to TNF1” value in experiment [20] is at least 15 fold. For the same molecule, in experiment [13], the “Binding ΔG” value is -6.03 kcal/mol and the Kd turned out to be 40 µM.

B7: TBPL005 (peptide)
peptide: GHKVVPQRQIRHAYNRYGSC
notes: Clone from mRNA display on a doped TRF26 library; synthesised and HPLC purified
The molecule B7 showed an equilibrium dissociation constant (Kd) with transferrin [21] of 150 µM. Regarding AHKVVPQRQIRFAYNRYGSC [TRF26 H12F point-mutant], the “Kd Fold-Change Relative to Lead” value with transferrin [22] was determined as 8.8 fold. Further, in the experiment with transferrin [23], the “Binding ΔG” value was -6.85 kcal/mol and the equilibrium dissociation constant (Kd) amounted to 9.7 µM.

B8: TBPL025 (peptide)
peptide: GHKVVPQRQMRHAYNRNGSC
notes: Clone from mRNA display on a doped TRF26 library
In the experiment with transferrin [21], B8 displayed a Kd of 150 µM.

On to AHKVVYQRQIRHAYNRYGSC [TRF26 P6Y point-mutant], for which, in the experiment with transferrin [22], the “Kd Fold-Change Relative to Lead” value was found to be 10 fold. Further, in the experiment with transferrin [23], the “Binding ΔG” value was -6.93 kcal/mol and the affinity, expressed as Kd, was 8.6 µM.
